According to patent US5821118:

Experiments:
[1] = molecular target: bovine brain farnesyl-protein transferase (bovine) (UniProt P29702)
[2] = molecular target: human farnesyl-protein transferase, recombinant, expressed in E. coli from pRD516 with a C-terminal Glu-Glu-Phe epitope tag on the β subunit (human)

Row | Substance | IC50 value (nM), inhibition of farnesylation of Ras protein [1] [nM] | IC50 value (nM), inhibition of farnesylation of Ras protein [2] [nM]
1 | tetrapeptide CVIL (cysteinylvalinyl-isolleucinyl-leucine) | 20000 | 6200
2 | tetrapeptide CVIM (cysteinylvalinyl-isolleucinyl-methionine) | 100 | 100
3 | tetrapeptide CIFM (cysteinylisolleucinyl-phenylalaninyl-methionine) | 10 | 17
